From PMC11268888

Key:
Test in all cases: SPR; […]; HBS-EP (10 mM HEPES pH 7.4, 150 mM NaCl, 3 mM EDTA, 0.005% Surfactant P20); […]
[1] = target: soluble head domain of CDV-H (canine distemper virus hemagglutinin), Kyoto Biken vaccine strain, made in HEK293T cells (canine distemper virus (Kyoto Biken vaccine strain))
[2] = target: MeV-H (measles virus hemagglutinin), vaccine strain (measles virus)
[3] = target: ectodomain (head domain) of CDV-H, 5VD wild-type strain (canine distemper virus (5VD wild-type strain))

Chain of ectodomain of human Nectin-4 (residues 1-333) (Q96NY8 32-333): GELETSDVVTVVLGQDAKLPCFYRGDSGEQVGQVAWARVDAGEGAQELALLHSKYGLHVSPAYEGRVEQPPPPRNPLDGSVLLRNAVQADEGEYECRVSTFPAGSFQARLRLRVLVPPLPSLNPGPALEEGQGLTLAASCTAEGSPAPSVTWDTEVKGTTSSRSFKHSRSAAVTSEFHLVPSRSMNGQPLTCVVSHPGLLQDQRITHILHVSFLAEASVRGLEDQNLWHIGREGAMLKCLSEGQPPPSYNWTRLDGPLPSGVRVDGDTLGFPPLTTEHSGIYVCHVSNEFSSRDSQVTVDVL

Row | Substance | Ka [1] [M⁻¹] | Kd [1] [nM] | Ka [2] [M⁻¹] | Kd [2] [nM] | Ka [3] [M⁻¹] | Kd [3] [nM]
1 | ectodomain of dog Nectin-4 (residues 1-332) (receptor) | 1.06e+06 | 942 | 950000 | 1050 | 396000 | 2530
2 | ectodomain of human Nectin-4 (residues 1-333) (from UniProt Q96NY8 32-333) (receptor) | 1.05e+06 | 2520 | 1.5e+06 | 666 | 397000 | 948
